Broadly, the stoichiometry N is the number of molecules, sites or subunits per partner or assembly.

For one substance, stoichiometry N results are on record in PMC3724652.

The target of the assay is rat GluA2igQ with a His8/Myc tag between residues 22 and 23 (rat). The assay can be described thus: AFM imaging of receptor-antibody complexes; receptors isolated by immunoaffinity chromatography from the total cellular pool, incubated with subunit- or tag-specific antibodies, adsorbed to mica at 0.04 nM, imaged in air in tapping mode; volumes of decorated particles and angles between two bound antibodies.

Substance “rat GluA2igQ with a His8/Myc tag between residues 22 and 23 (receptor)” gave a stoichiometry N of 4.
